Among the data in publication PMC314469, “Protein Interaction Networks by Proteome Peptide Scanning” (PLoS Biology, 2004) are normalised SPOT signal, Boehringer light units (BLU); mean over the file's lines of this peptide values, retold here.

Sequences and labels used below:
T1: Abp1 SH3 (ABP1_YEAST), P15891
T1 chain: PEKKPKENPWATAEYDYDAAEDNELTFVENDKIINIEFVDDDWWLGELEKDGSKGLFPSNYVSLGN

B1: YBR208C 1266-1278 (peptide)
chain: TSGPHGSPDFFKP
B2: YDR389W 475-487 (peptide)
chain: TSKMLKPPKQRRP
B3: YCL027W 383-396 (peptide)
chain: TEKHELIIPTPSKP
B4: YKL178C 248-261 (peptide)
chain: TIWNTIIKFDPGRP
B5: YGL169W 124-136 (peptide)
chain: TSLFDNIPSIYRP
B6: YDR176W 125-138 (peptide)
chain: TNIIDKGVQSPPKP
B7: YML016C 58-71 (peptide)
chain: TNSNVPDPSTPSKP
B8: YPR022C 958-970 (peptide)
chain: SYNINSDPVITRP
B9: YHR102W 715-728 (peptide)
chain: TKLSTHKASSPSRP
B10: YMR124W 350-362 (peptide)
chain: TNGPRYSPQNPRP
B11: YNL226W 110-123 (peptide)
chain: TRKSVNIKSWPLKP
B12: YBR122C 34-47 (peptide)
chain: SYPGSTRITLPRRP
B13: YPL088W 324-337 (peptide)
chain: TEEEIKYLEEPYKP
B14: YGR127W 236-248 (peptide)
chain: TMNTIYVPPLRRP
B15: YBR058C 192-205 (peptide)
chain: TSPHTENFQIPSKP
B16: YOR118W 248-260 (peptide)
chain: TAIRTVMPNLLKP
B17: YLL003W 876-888 (peptide)
chain: TTGLNGSPTRGKP
B18: YPR096C 5-17 (peptide)
chain: TGVSIKNPRPSRP
B19: YDL227C 82-95 (peptide)
chain: TAGHKLSVRVPTKP
B20: YMR044W 280-292 (peptide)
chain: TKAKKEKPKPPKP
B21: YKR098C 130-143 (peptide)
chain: TIKRKRAYSLPLRP
B22: YLR431C 386-399 (peptide)
chain: TTAQDGSSALPSKP
B23: YIL110W 72-84 (peptide)
chain: TFEEFQSPIYRKP
B24: YBL009W 142-155 (peptide)
chain: TKVTNSKFRTPLRP
B25: YKR086W 737-749 (peptide)
chain: TDELSKFPFIDKP
B26: YFR022W 627-640 (peptide)
chain: SYPSAIQNVQPRKP
B27: YML061C 94-106 (peptide)
chain: TDIHKEDPVDKKP
B28: YPL015C 81-93 (peptide)
chain: TLAKELYPGNFRP
B29: YJR061W 698-711 (peptide)
chain: TMFSGVSAFVPNRP
B30: YIL095W 739-752 (peptide)
chain: TKSNGKDKSRPPRP
B31: YIR002C 128-141 (peptide)
chain: TKKAKIIFTAPTRP
B32: YBR115C 740-752 (peptide)
chain: TLITFMVPRFDKP
B33: YBL031W 191-203 (peptide)
chain: TPLSKPKPFMHKP
B34: YMR011W 36-49 (peptide)
chain: TKSEYTNAELPAKP
B35: YHR102W 753-765 (peptide)
chain: THTNLAPPPTMKP
B36: YOL153C 56-68 (peptide)
chain: TFDVPASPQSKKP
B37: YMR185W 853-865 (peptide)
chain: TSLSIVRPNDSKP
B38: YDL224C 233-245 (peptide)
chain: TSSSPLGPSAAKP
B39: YML109W 280-292 (peptide)
chain: TKFDDEPPLADKP
B40: YDR379W 561-573 (peptide)
chain: TPPLESGPLFKRP
B41: YKL085W 88-101 (peptide)
chain: TDMVLIPAGVPRKP
B42: YNL251C 479-491 (peptide)
chain: TDSGRNGPRSGKP
B43: YJR024C 74-86 (peptide)
chain: TLEYLRSPKLYKP
B44: YHR100C 9-21 (peptide)
chain: TLRLLYNPSLSKP
B45: YOL148C 219-231 (peptide)
chain: TNTVDVTPKENKP
B46: YPR171W 199-212 (peptide)
chain: TDGNEEKPLLPTRP
B47: YJL045W 457-470 (peptide)
chain: TIADTLQPGLPHKP
B48: YGL167C 571-584 (peptide)
chain: TFTGLIGMNDPPRP
B49: YBL047C 1258-1270 (peptide)
chain: TLTSSSNPTIPKP
B50: YCL048W 21-34 (peptide)
chain: THALGAAIDPPRRP
B51: YLR249W 670-682 (peptide)
chain: TNMEFQYPGTSKP
B52: YKL109W 65-77 (peptide)
chain: TSKHWVLPPRPRP
B53: YGL122C 280-292 (peptide)
chain: TKVSNEYPNSPKP
B54: YPL226W 815-827 (peptide)
chain: TDVTFSYPGAQKP

In the assay the target is T1, Abp1 SH3 (ABP1_YEAST), P15891. The assay is described as follows: SPOT array.
Turning to B1, the normalised SPOT signal, Boehringer light units (BLU); mean over the file's lines of this peptide is 64.2. The molecule B2 returned a normalised SPOT signal, Boehringer light units (BLU); mean over the file's lines of this peptide of 617. Under B3 stands 57.

For the molecule B4, the normalised SPOT signal, Boehringer light units (BLU); mean over the file's lines of this peptide stood at 180.

In turn, B5 yielded a normalised SPOT signal, Boehringer light units (BLU); mean over the file's lines of this peptide of 43.4.

In turn, B6 came in with a normalised SPOT signal, Boehringer light units (BLU); mean over the file's lines of this peptide of 140. The molecule B7 showed a normalised SPOT signal, Boehringer light units (BLU); mean over the file's lines of this peptide of 78.1. Regarding B8, the normalised SPOT signal, Boehringer light units (BLU); mean over the file's lines of this peptide worked out at 90.3.

The molecule B9 had a normalised SPOT signal, Boehringer light units (BLU); mean over the file's lines of this peptide of 170. Molecule B10 had a normalised SPOT signal, Boehringer light units (BLU); mean over the file's lines of this peptide of 749.

For the molecule B11, the normalised SPOT signal, Boehringer light units (BLU); mean over the file's lines of this peptide came out at 124. As for B12, the normalised SPOT signal, Boehringer light units (BLU); mean over the file's lines of this peptide worked out at 568. Regarding B13, the normalised SPOT signal, Boehringer light units (BLU); mean over the file's lines of this peptide was 102. Take B14: the normalised SPOT signal, Boehringer light units (BLU); mean over the file's lines of this peptide worked out at 3360. B15 returned a normalised SPOT signal, Boehringer light units (BLU); mean over the file's lines of this peptide of 66.6.

For B16, the normalised SPOT signal, Boehringer light units (BLU); mean over the file's lines of this peptide amounted to 109. Under B17 stands 83.1. Under B18 stands 1030. The molecule B19 had a normalised SPOT signal, Boehringer light units (BLU); mean over the file's lines of this peptide of 638. As to B20, the normalised SPOT signal, Boehringer light units (BLU); mean over the file's lines of this peptide worked out at 1330. Next, B21: 133; B22: 133; B23: 98.3. As to B24, the normalised SPOT signal, Boehringer light units (BLU); mean over the file's lines of this peptide was determined as 137. B25 yielded a normalised SPOT signal, Boehringer light units (BLU); mean over the file's lines of this peptide of 42.7. B26 had a normalised SPOT signal, Boehringer light units (BLU); mean over the file's lines of this peptide of 105. In turn, B27 yielded a normalised SPOT signal, Boehringer light units (BLU); mean over the file's lines of this peptide of 200. In turn, B28 displayed a normalised SPOT signal, Boehringer light units (BLU); mean over the file's lines of this peptide of 54. On to B29, for which the normalised SPOT signal, Boehringer light units (BLU); mean over the file's lines of this peptide amounted to 451. B30 registered a normalised SPOT signal, Boehringer light units (BLU); mean over the file's lines of this peptide of 141. Regarding B31, the normalised SPOT signal, Boehringer light units (BLU); mean over the file's lines of this peptide amounted to 87.4. For the molecule B32, the normalised SPOT signal, Boehringer light units (BLU); mean over the file's lines of this peptide is 0. In the case of B33, the normalised SPOT signal, Boehringer light units (BLU); mean over the file's lines of this peptide turned out to be 11300. In turn, B34 showed a normalised SPOT signal, Boehringer light units (BLU); mean over the file's lines of this peptide of 67.7. With B35, the normalised SPOT signal, Boehringer light units (BLU); mean over the file's lines of this peptide came out at 136. Next, B36: 113; B37: 54.1; B38: 133. In the case of B39, the normalised SPOT signal, Boehringer light units (BLU); mean over the file's lines of this peptide was found to be 133. For the molecule B40, the normalised SPOT signal, Boehringer light units (BLU); mean over the file's lines of this peptide was 55.6. Next, B41: 122; B42: 36.5. Take B43: the normalised SPOT signal, Boehringer light units (BLU); mean over the file's lines of this peptide came out at 193. B44 registered a normalised SPOT signal, Boehringer light units (BLU); mean over the file's lines of this peptide of 61. Next, B45: 40.3; B46: 65.4; B47: 127.

B48: the normalised SPOT signal, Boehringer light units (BLU); mean over the file's lines of this peptide turned out to be 83.7. As for B49, the normalised SPOT signal, Boehringer light units (BLU); mean over the file's lines of this peptide was determined as 129. Under B50 stands 53.7; under B51, 93.7.

For the molecule B52, the normalised SPOT signal, Boehringer light units (BLU); mean over the file's lines of this peptide came out at 3940.

Consider B53, for which the normalised SPOT signal, Boehringer light units (BLU); mean over the file's lines of this peptide was found to be 146. B54 showed a normalised SPOT signal, Boehringer light units (BLU); mean over the file's lines of this peptide of 108.
